Assay results from patent publication US20080125364A1, “Methods and Compositions for Treating Epithelial Cancers” (priority 2004, published 2008).

B1: Occ: full-length human occludin with C-terminal myc-tag, stably expressed in Raf1-transformed Pa4 cells (protein, UniProt Q16625 1-522, looked up)
chain: MSSRPLESPPPYRPDEFKPNHYAPSNDIYGGEMHVRPMLSQPAYSFYPEDEILHFYKWTSPPGVIRILSMLIIVMCIAIFACVASTLAWDRGYGTSLLGGSVGYPYGGSGFGSYGSGYGYGYGYGYGYGGYTDPRAAKGFMLAMAAFCFIAALVIFVTSVIRSEMSRTRRYYLSVIIVSAILGIMVFIATIVYIMGVNPTAQSSGSLYGSQIYALCNQFYTPAATGLYVDQYLYHYCVVDPQEAIAIVLGFMIIVAFALIIFFAVKTRRKMDRYDKSNILWDKEHIYDEQPPNVEEWVKNVSAGTQDVPSPPSDYVERVDSPMAYSSNGKVNDKRFYPESSYKSTPVPEVVQELPLTSPVDDFRQPRYSSGGNFETPSKRAPAKGRAGRSKRTEQDHYETDYTTGGESCDELEEDWIREYPPITSDQQRQLYKRNFDTGLQEYKSLQSELDEINKELSRLDKELDDYREESEEYMAAADEYNRLKQVKGSADYKSKKNHCKQLKSKLSHIKKMVGDYDRQKT
modifications: full-length C-terminal myc-tag
notes: full-length human occludin with C-terminal myc-tag, stably expressed in Raf1-transformed Pa4 cells
B2: claudin-1: tight junction protein claudin-1 force-expressed in Pa4-Raf1 cells (protein, UniProt O95832 1-211, looked up)
Claudin-1: MANAGLQLLGFILAFLGWIGAIVSTALPQWRIYSYAGDNIVTAQAMYEGLWMSCVSQSTGQIQCKVFDSLLNLSSTLQATRALMVVGILLGVIAIFVATVGMKCMKCLEDDEVQKMRMAVIGGAIFLLAGLAILVATAWYGNRIVQEFYDPMTPVNARYEFGQALFTGWAAASLCLLGGALLCCSCPRKTTSYPTPRPYPKPAPSSGKDYV

How the values were obtained:
Pa4-Raf1 cells [1] = assay: Cloning efficiency (anchorage-independent growth) in soft agarose; type: cell-based, rat; conditions: Pa4-Raf1 cells expressing the construct, 4 weeks, colonies >0.4 mm counted
Protocol: Pa4 cells, Pa4-Raf1 cells and Pa4-Raf1 cells expressing full-length occludin or various occludin mutants were seeded a density of 1×10^4 cells per 35-mm culture dish in 1 ml of 0.35% (wt/vol) low melting point agarose solution diluted with complete medium. Dishes were coated with 1 ml of 0.7% (wt/vol) low melting point agarose before cell plating, and 1 ml of overlay medium was added after cell plating. The dishes were incubated at 35° C. in 5% CC>2 and 95% air for 4 weeks. The overlay medium was changed every 3 days. After 4 weeks, the cells were stained with 3-[4,5-dimethylthiazol-2-yl]-2,5-diphenyltetrazolium bromide (MTT; 0.05 mg/ml). The stained dishes were photographed, and colonies >0.4 mm in diameter were counted and analyzed.

Pa4-Raf1 cells [2] = assay: Paracellular permeability to FD-3 (3 kDa FITC-dextran); type: cell-based, rat; conditions: Pa4-Raf1 cells expressing the construct
Protocol: (§1) For transepithelial electrical resistance (TER) measurements, cells were plated on polycarbonate filters with a pore size of 0.4 μm. A Millicell-ERS volt-ohm meter (Millipore) was used to determine the TER value. All TER values were normalized for the area of the filter and were obtained by subtracting the contribution of the filter and bathing solution. Paracellular permeability to fluoresceinated dextran (FD-3; MW 3000) was assessed according to previously published methods (Sanders et al., 1995). Briefly, cells were grown on polycarbonate filters with a pore size of 0.4 μm. TER was measured and then cells were washed in Hanks balanced salt solution/10 mM HEPES (HBSS^+) and equilibrated at 37° C. for 10 min on an orbital shaker. Cells were loaded apically with 1 mg/ml FD-3 (Molecular Probes) at time=0. Basolateral samples were taken at t=0, 30, 60, 90 and 120 minutes, and fluorescence intensity was analyzed on a CytoFluor 2350 Fluorescence Measurement System (Millipore, Cambridge, Mass.). FD-3 concentrations transported were extrapolated from a standard curve (generated by diluting known concentrations of fluorescent tracer) and expressed as ng FD-3 transported/cm^2/hour. Numerical values from individual experiments were pooled and expressed as mean ±standard error of the mean. Data shown are representative of at least three experiments.

Pa4-Raf1 cells [3] = assay: Phase contrast and immunofluorescence microscopy of cell morphology and junctional proteins; type: cell-based, rat; conditions: Pa4-Raf1 cells expressing the construct, grown on plastic
Protocol: Cells grown on glass coverslips or on polycarbonate filters (NK, Costar, Cambridge, Mass., US) with a pore size of 0.4 μm were rinsed with HBSS containing calcium and magnesium (HBSS^+). Cells were fixed and permeabilized in absolute methanol for 20 min at −20° C., followed by blocking in HBSS^+ containing 5% normal goat serum (blocking buffer) for 1 h at room temperature and incubation for 60 min with primary antibodies to human occludin, claudin-1, and ZO-1, (Zymed Laboratories, San Francisco, Calif.), E-cadherin (BD Biosciences) in blocking buffer. Cells were then washed, incubated for 60 min with Alexa dye-conjugated secondary antibodies (Molecular Probes, Eugene, Oreg.), followed by rinsing and mounting on slides with PROLONG ANTIFADE medium (Molecular Probes). For double labeling of junctional proteins, cells were fixed and permeabilized in absolute methanol and blocked in blocking buffer. Cells were sequentially stained with two primary antibodies. Donkey anti-goat and anti-rabbit antibodies conjugated to fluorescent red or green Alexa dyes (Molecular Probes) were used for detection of the respective primary antibodies. Stained cells were scanned using a Zeiss LSM510 laser scanning confocal microscope (Zeiss Microimaging Inc., Thornwood, N.Y.) coupled to a Zeiss 100M axiovert and 40× or 63× Pan-Apochromat oil lenses. […]

Pa4-Raf1 cells [4] = assay: Tumorigenicity in nude mice; type: in vivo; conditions: Pa4-Raf1 cells expressing the construct, injected subcutaneously, 6 weeks post injection
Protocol: The nude mice were used to assay tumorigenicity in vivo. Pa4 cells, Pa4-Raf1 cells and Pa4-Raf1 cells expressing fall-length occludin or various occludin mutants were grown to logarithmic growth phase, harvested, washed, and resuspended in PBS for injection. Each of the cell lines (1×10^6 cells in 200 μl PBS) was injected subcutaneously into the flanks of four male nude mice. Tumor formation was monitored daily. All nude mice were sacrificed at six weeks, with tumors being isolated and analyzed.

Pa4-Raf1 cells [5] = assay: Oligonucleotide microarray comparison of mRNA abundance; type: cell-based, rat; conditions: for correction of Raf1-driven gene expression changes (mRNA abundance): forced expression in Pa4-Raf1 cells
From the text: Based upon internal quality control data, differential expression values greater than 1.5 obtained with Agilent Oligonucleotide microarrays are likely to be significant. Using this benchmark, we compared microarray data for entire rat genome obtained from Pa-4 cells before and after stable transfection with constitutively active Raf1 (Pa4-Raf1). […] Genes affected by active Raf1 in Pa4 cells included transcription factors, response elements, regulatory molecules, growth factor receptors, cell-cell contact proteins, and cytoskeletal elements that were consistent with those identified in other studies examining epithelial cell gene modulation associated with Ras/Raf/MAP kinase pathway activation. The strongest mRNA abundance profile shifts occurred in genes associated with cell polarity, proliferation and sensitivity to apoptotic stimuli. Numerous genes identified by the present studies have been previously reported as being targets of cell regulation in other cancer cell microarray studies.

Pa4-Raf1 cells [6] = assay: Transepithelial electrical resistance (TER) of monolayers on filter supports; type: cell-based, rat; conditions: Pa4-Raf1 cells expressing the construct, after 5 days of culture on semi-permeable filter supports
Protocol: as §1

| Molecule | average number of colonies on soft agarose (Pa4-Raf1 cells [1]) [colonies] | FD-3 flux rate (Pa4-Raf1 cells [2]) | rescue of epithelial cell morphology (Pa4-Raf1 cells [3]) | rescue of epithelial cell morphology (Pa4-Raf1 cells [3]; listed as full-length occludin) | tumor formation (Pa4-Raf1 cells [4]) | growth factor binding protein mRNA up-regulation (Pa4-Raf1 cells [5]; Pa4 Raf1 cells, forced occludin expression) [fold] | aquaporin-1 mRNA levels (Pa4-Raf1 cells [5]; Raf1-induced nearly 4-fold increase) | correction of Raf1-driven gene expression changes (mRNA abundance) (Pa4-Raf1 cells [5]) | correction of Raf1 gene modifications of Table 1 (Pa4-Raf1 cells [5]; genes of Table 1) | REX-3 mRNA abundance (Pa4-Raf1 cells [5]; up-regulated 37-fold by Raf1) | transepithelial electrical resistance (TER) (Pa4-Raf1 cells [6]) [O-cm^2] |
| --- | --- | --- | --- | --- | --- | --- | --- | --- | --- | --- | --- |
| B1 | 5 | −1,500 ng/cm^2/hr | recovered epithelial morphology | tightly clustered colonies | failed to produce tumors | 35 | corrected | remarkable reversal of essentially all of the genomic changes | corrected | down-regulated by occludin to an equivalent extent | > 900 |
| B2 | – | – | – | – | – | – | – | fails to affect correction of gene modifications | – | – | – |
